Blank lines part the entries; values can stand above or below the binder they belong to.
Molecular target: T1, wild type nucleophosmin (NPM) (human, UniProt P06748 1-294)
T1 construct: human nucleophosmin, full length, wild type, pentameric; also called NPM1; B23; source: E. coli BL21 (DE3), purified (Ni-NTA, TEV, second Ni-NTA, Superdex 200); not shown: (His)10-ZZ, N-terminal, cleaved
Experiment: ITC; importin α, importin Δα or importin α/β at 45–60 μM titrated onto NPM (1–1.2 μM pentamer); 50 mM Tris/HCl pH 7.5, 100 mM NaCl, 2 mM TCEP, 10% glycerol; identical, independent binding sites model; n counts importins for each NPM pentamer
Settings: both partners purified

T1 sequence (P06748 whole entry): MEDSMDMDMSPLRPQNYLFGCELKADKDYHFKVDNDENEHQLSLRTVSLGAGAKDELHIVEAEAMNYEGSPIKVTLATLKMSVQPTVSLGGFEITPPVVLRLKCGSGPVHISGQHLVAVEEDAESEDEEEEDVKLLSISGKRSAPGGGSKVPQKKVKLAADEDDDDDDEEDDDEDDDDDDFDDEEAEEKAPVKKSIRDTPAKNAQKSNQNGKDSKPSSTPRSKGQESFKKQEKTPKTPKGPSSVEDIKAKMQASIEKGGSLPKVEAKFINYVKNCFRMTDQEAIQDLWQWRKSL

- Kd: 703 ± 347 nM
- dH: -10.9 ± 4 kcal/mol
- stoichiometry N: 5 ± 0.2
B1: importin α (receptor)
chain: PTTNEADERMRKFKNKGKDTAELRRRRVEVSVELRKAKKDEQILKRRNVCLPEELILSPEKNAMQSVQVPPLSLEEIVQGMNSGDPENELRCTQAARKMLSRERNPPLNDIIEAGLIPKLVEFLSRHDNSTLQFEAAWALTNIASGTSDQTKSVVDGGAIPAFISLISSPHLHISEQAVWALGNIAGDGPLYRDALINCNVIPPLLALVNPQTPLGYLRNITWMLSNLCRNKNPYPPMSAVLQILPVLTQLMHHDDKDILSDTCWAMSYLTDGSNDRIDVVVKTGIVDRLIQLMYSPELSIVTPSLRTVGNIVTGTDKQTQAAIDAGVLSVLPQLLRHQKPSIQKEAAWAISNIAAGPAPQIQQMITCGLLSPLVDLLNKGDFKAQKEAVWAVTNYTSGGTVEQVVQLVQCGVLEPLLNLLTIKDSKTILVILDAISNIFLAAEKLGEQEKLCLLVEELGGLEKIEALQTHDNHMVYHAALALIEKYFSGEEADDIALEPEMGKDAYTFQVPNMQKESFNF

- Kd: 295 ± 20 nM
- dH: -14.3 ± 3.5 kcal/mol
- stoichiometry N: 4.9 ± 0.2
B2: importin Δα (importin α lacking the importin β binding (IBB) motif) (domain or fragment)
chain: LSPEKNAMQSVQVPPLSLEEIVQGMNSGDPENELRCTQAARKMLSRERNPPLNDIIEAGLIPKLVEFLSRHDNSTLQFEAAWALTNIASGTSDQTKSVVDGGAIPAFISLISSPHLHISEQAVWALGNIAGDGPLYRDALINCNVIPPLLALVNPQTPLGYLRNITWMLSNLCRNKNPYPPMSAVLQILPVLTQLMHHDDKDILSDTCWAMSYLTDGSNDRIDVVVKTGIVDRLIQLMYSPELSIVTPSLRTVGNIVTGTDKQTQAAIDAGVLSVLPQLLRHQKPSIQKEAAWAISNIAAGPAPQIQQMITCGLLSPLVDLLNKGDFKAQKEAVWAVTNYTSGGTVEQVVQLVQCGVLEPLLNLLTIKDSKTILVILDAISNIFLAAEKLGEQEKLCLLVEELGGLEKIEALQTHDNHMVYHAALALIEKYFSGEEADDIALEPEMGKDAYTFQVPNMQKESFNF

Reference: article PMC4474691, “Leukemia-Associated Mutations in Nucleophosmin Alter Recognition by CRM1: Molecular Basis of Aberrant Transport” (PLoS ONE, 2015)
